Source: patent US20130149236A1 (MacroGenics, published 2013)

Experiments:
soluble B7H3-2Ig = biological target: T1, soluble B7H3-2Ig (human, UniProt Q5ZPR3 29-466); assay: Specificity
T1 construct: Soluble or immobilized 2Ig form; also called 2Ig-B7-H3; B7-H3 (2Ig form)
T1 sequence: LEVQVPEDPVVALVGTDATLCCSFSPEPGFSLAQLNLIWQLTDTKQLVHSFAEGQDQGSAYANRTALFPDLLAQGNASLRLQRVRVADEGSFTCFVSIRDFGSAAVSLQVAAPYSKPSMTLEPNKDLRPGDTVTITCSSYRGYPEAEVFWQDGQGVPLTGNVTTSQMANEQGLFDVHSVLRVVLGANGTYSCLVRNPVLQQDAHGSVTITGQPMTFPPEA

soluble B7H3-4Ig = biological target: T2, soluble B7H3-4Ig (human, UniProt Q5ZPR3 29-466); assay: Specificity
T2 construct: Soluble or immobilized 4Ig form; also called 4Ig-B7-H3
T2 sequence: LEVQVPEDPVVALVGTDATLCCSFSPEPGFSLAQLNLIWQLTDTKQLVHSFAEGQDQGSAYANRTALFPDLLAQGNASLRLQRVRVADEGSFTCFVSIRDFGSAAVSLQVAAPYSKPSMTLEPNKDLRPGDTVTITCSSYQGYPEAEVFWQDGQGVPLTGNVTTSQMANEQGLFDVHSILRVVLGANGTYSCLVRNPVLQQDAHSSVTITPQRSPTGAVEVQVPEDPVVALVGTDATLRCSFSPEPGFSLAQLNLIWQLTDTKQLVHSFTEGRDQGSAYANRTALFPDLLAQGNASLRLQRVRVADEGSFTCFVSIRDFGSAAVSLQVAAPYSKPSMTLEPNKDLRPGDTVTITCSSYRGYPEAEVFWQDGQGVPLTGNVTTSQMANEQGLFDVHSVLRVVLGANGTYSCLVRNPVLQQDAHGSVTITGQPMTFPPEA

B1: BRCA84D (antibody, IgG1, V domains shown)
VH: DVQLVESGGGLVQPGGSRKLSCAASGFTFSSFGMHWVRQAPEKGLEWVAYISSDSSAIYYADTVKGRFTISRDNPKNTLFLQMTSLRSEDTAMYYCGRGRENIYYGSRLDYWGQGTTLTVSS
VL: DIAMTQSQKFMSTSVGDRVSVTCKASQNVDTNVAWYQQKPGQSPKALIYSASYRYSGVPDRFTGSGSGTDFTLTINNVQSEDLAEYFCQQYNNYPFTFGSGTKLEIK
notes: murine mAb, IgG1/k; fluorescein-labeled in the FACS MFI columns
B1: binds (soluble B7H3-2Ig); binds (soluble B7H3-4Ig).

B2: PRCA157 (antibody, IgG1, V domains shown)
VH: EVQQVESGGDLVKPGGSLKLSCAASGFTFSSYGMSWVRQTPDKRLEWVATINSGGSNTYYPDSLKGRFTISRDNAKNTLYLQMRSLKSEDTAMYYCARHDGGAMDYWGQGTSVTVSS
VL: DIQMTQSPASLSVSVGETVTITCRASESIYSYLAWYQQKQGKSPQLLVYNTKTLPEGVPSRFSGSGSGTQFSLKINSLQPEDFGRYYCQHHYGTPPWTFGGGTNLEIK
notes: murine mAb, IgG1/k
B2: binds (soluble B7H3-2Ig); binds (soluble B7H3-4Ig).
